Tested on: PAD2 and PAD4
Assay: Citrullination site mapping of fibrinogen and vimentin by trypsin digestion and mass spectrometry (protein-level sheet, one search over native, PAD2-cit and PAD4-cit samples)
Format: biochemical, human
Details: modified residues found per protein; Deamidated [R..] = deamidated (citrullinated) arginine positions; trypsin digest, Sequest HT; not split by sample (native, PAD2-citrullinated, PAD4-citrullinated fibrinogen and vimentin)
Text: Description: Raw mass spectrometry data for proteolytic mapping of fibrinogen, vimentin, and hnRNP A2/B1 by cathepsins B, S, and H (sheets 1-6); citrullination site mapping of fibrinogen and vimentin by trypsin digestion (sheets 7-8); and the natural antigen processing assay with native, PAD2-citrullinated (PAD2-cit), and PAD4-citrullinated (PAD4-cit) fibrinogen (sheets 9-11).

Row | Molecule | Modifications
1 | P12035 (protein, UniProt P12035 1-628, looked up, full-length) MSRQASKTSGGGSQGFSGRSAVVSGSSRMSCVAHSGGAGGGAYGFRSGAGGFGSRSLYNLGGNKSISISVAAGGSRAGGFGGGRSSCAFAGGYGGGFGSGYGGGFGGGFGGGRGMGGGFGGAGGFGGAGGFGGAGGFGGPGGFGGSGGFGGPGSLGSPGGFGPGGFPGGIQEVTINQSLLQPLNVEIDPQIGQVKAQEREQIKTLNNKFASFIDKVRFLEQQNKVLETKWNLLQQQGTSSISGTNNLEPLFENHINYLRSYLDNILGERGRLDSELKNMEDLVEDFKKKYEDEINKRTAAENEFVTLKKDVDSAYMNKVELQAKVDALIDEIDFLRTLYDAELSQMQSHISDTSVVLSMDNNRSLDLDSIIAEVRAQYEDIAQRSKAEAEALYQTKLGELQTTAGRHGDDLRNTKSEIIELNRMIQRLRAEIEGVKKQNANLQTAIAEAEQHGEMALKDANAKLQELQAALQQAKDDLARLLRDYQELMNVKLALDVEIATYRKLLEGEEYRMSGECPSAVSISVVSSSTTSASAGGYGGGYGGGMGGGLGGGFSAGGGSGSGFGRGGGGGIGGGFGGGSSGFSGGSGFGSISGARYGVSGGGFSSASNRGGSIKFSQSSQSSQRYSR | Deamidated [R217]
2 | Q8N1N4 (protein) MSLSPCRAQRGFSARSACSARSRGRSRGGFSSRGGFSSRSLNSFGGCLEGSRGSTWGSGGRLGVRFGEWSGGPGLSLCPPGGIQEVTINQNLLTPLKIEIDPQFQVVRTQETQEIRTLNNQFASFIDKVRFLEQQNKVLETKWHLLQQQGLSGSQQGLEPVFEACLDQLRKQLEQLQGERGALDAELKACRDQEEEYKSKYEEEAHRRATLENDFVVLKKDVDGVFLSKMELEGKLEALREYLYFLKHLNEEELGQLQTQASDTSVVLSMDNNRYLDFSSIITEVRARYEEIARSSKAEAEALYQTKYQELQVSAQLHGDRMQETKVQISQLHQEIQRLQSQTENLKKQNASLQAAITDAEQRGELALKDAQAKVDELEAALRMAKQNLARLLCEYQELTSTKLSLDVEIATYRRLLEGEECRMSGECTSQVTISSVGGSAVMSGGVGGGLGSTCGLGSGKGSPGSCCTSIVTGGSNIILGSGKDPVLDSCSVSGSSAGS | Deamidated [R130]
3 | P01871 (protein) GSASAPTLFPLVSCENSPSDTSSVAVGCLAQDFLPDSITFSWKYKNNSDISSTRGFPSVLRGGKYAATSQVLLPSKDVMQGTDEHVVCKVQHPNGNKEKNVPLPVIAELPPKVSVFVPPRDGFFGNPRKSKLICQATGFSPRQIQVSWLREGKQVGSGVTTDQVQAEAKESGPTTYKVTSTLTIKESDWLGQSMFTCRVDHRGLTFQQNASSMCVPDQDTAIRVFAIPPSFASIFLTKSTKLTCLVTDLTTYDSVTISWTRQNGEAVKTHTNISESHPNATFSAVGEASICEDDWNSGERFTCTVTHTDLPSPLKQTISRPKGVALHRPDVYLLPPAREQLNLRESATITCLVTGFSPADVFVQWMQRGQPLSPEKYVTSAPMPEPQAPGRYFAHSILTVSEEEWNTGETYTCVVAHEALPNRVTERTVDKSTGKPTLYNVSLVMSDTAGTCY | Deamidated [R423]
4 | Q5T749 (protein) MCDQQQIQCRLPLQQCCVKGPSFCSSQSPFAQSQVVVQAPCEMQIVDCPASCPVQVCQVSDQAPCQSQTTQVKCQSKTKQVKGQAQCQSKTTQVKGQAASQSQTSSVQSQAPCQSEVSYVQCEASQPVQTCFVECAPVCYTETCYVECPVQNYVPCPAPQPVQMYRGRPAVCQPQGRFSTQCQYQGSYSSCGPQFQSRATCNNYTPQFQLRPSYSSCFPQYRSRTSFSPCVPQCQTQGSYGSFTEQHRSRSTSRCLPPPRRLQLFPRSCSPPRRFEPCSSSYLPLRPSEGFPNYCTPPRRSEPIYNSRCPRRPISSCSQRRGPKCRIEISSPCCPRQVPPQRCPVEIPPIRRRSQSCGPQPSWGASCPELRPHVEPRPLPSFCPPRRLDQCPESPLQRCPPPAPRPRLRPEPCISLEPRPRPLPRQLSEPCLYPEPLPALRPTPRPVPLPRPGQCEIPEPRPCLQPCEHPEPCPRPEPIPLPAPCPSPEPCRETWRSPSP | Deamidated [R211; R248; R371; R554]
5 | P0DPH8 (protein, UniProt P0DPH8 1-450, looked up, full-length) MRECISIHVGQAGVQIGNACWELYCLEHGIQPDGQMPSDKTIGGGDDSFNTFFSETGAGKHVPRAVFVDLEPTVVDEVRTGTYRQLFHPEQLITGKEDAANNYARGHYTIGKEIVDLVLDRIRKLADLCTGLQGFLIFHSFGGGTGSGFASLLMERLSVDYGKKSKLEFAIYPAPQVSTAVVEPYNSILTTHTTLEHSDCAFMVDNEAIYDICRRNLDIERPTYTNLNRLIGQIVSSITASLRFDGALNVDLTEFQTNLVPYPRIHFPLATYAPVISAEKAYHEQLSVAEITNACFEPANQMVKCDPRHGKYMACCMLYRGDVVPKDVNAAIATIKTKRTIQFVDWCPTGFKVGINYQPPTVVPGGDLAKVQRAVCMLSNTTAIAEAWARLDHKFDLMYAKRAFVHWYVGEGMEEGEFSEAREDLAALEKDYEEVGVDSVEAEAEEGEEY | Deamidated [R64; R84; R105; R339; R373; R422]
6 | Q12805 (protein, UniProt Q12805 1-493, looked up, full-length) MLKALFLTMLTLALVKSQDTEETITYTQCTDGYEWDPVRQQCKDIDECDIVPDACKGGMKCVNHYGGYLCLPKTAQIIVNNEQPQQETQPAEGTSGATTGVVAASSMATSGVLPGGGFVASAAAVAGPEMQTGRNNFVIRRNPADPQRIPSNPSHRIQCAAGYEQSEHNVCQDIDECTAGTHNCRADQVCINLRGSFACQCPPGYQKRGEQCVDIDECTIPPYCHQRCVNTPGSFYCQCSPGFQLAANNYTCVDINECDASNQCAQQCYNILGSFICQCNQGYELSSDRLNCEDIDECRTSSYLCQYQCVNEPGKFSCMCPQGYQVVRSRTCQDINECETTNECREDEMCWNYHGGFRCYPRNPCQDPYILTPENRCVCPVSNAMCRELPQSIVYKYMSIRSDRSVPSDIFQIQATTIYANTINTFRIKSGNENGEFYLRQTSPVSAMLVLVKSLSGPREHIVDLEMLTVSSIGTFRTSSVLRLTIIVGPFSF | Deamidated [R185; R208; R227; R328; R345]
7 | B1AHL2 (protein) MERAAPSRRVPLPLLLLGGLALLAAGVDADVLLEACCADGHRMATHQKDCSLPYATESKECRAVGLASLCQDLNGAWAVWKVGRASQAEGTASARAQRRGMVQEQCCHSQLEELHCATGISLANEQDRCATPHGDNASLEATFVKRCCHCCLLGRAAQAQGQSCEYSLMVGYQCGQVFQACCVKSQETGDLDVGGLQETDKIIEVEEEQEDPYLNDRCRGGGPCKQQCRDTGDEVVCSCFVGYQLLSDGVSCEDVNECITGSHSCRLGESCINTVGSFRCQRDSSCGTGYELTEDNSCKDIDECESGIHNCLPDFICQNTLGSFRCRPKLQCKSGFIQDALGNCIDINECLSISAPCPIGHTCINTEGSYTCQKNVPNCGRGYHLNEEGTRCVDVDECAPPAEPCGKGHRCVNSPGSFRCECKTGYYFDGISRMCVDVNECQRYPGRLCGHKCENTLGSYLCSCSVGFRLSVDGRSCEDINECSSSPCSQECANVYGSYQ | Deamidated [R217; R219; R325; R327; R381; R391; R505; R623; R643; R671]
8 | Q02413 (protein, UniProt Q02413 1-1049, looked up, full-length) MDWSFFRVVAMLFIFLVVVEVNSEFRIQVRDYNTKNGTIKWHSIRRQKREWIKFAAACREGEDNSKRNPIAKIHSDCAANQQVTYRISGVGIDQPPYGIFVINQKTGEINITSIVDREVTPFFIIYCRALNSMGQDLERPLELRVRVLDINDNPPVFSMATFAGQIEENSNANTLVMILNATDADEPNNLNSKIAFKIIRQEPSDSPMFIINRNTGEIRTMNNFLDREQYGQYALAVRGSDRDGGADGMSAECECNIKILDVNDNIPYMEQSSYTIEIQENTLNSNLLEIRVIDLDEEFSANWMAVIFFISGNEGNWFEIEMNERTNVGILKVVKPLDYEAMQSLQLSIGVRNKAEFHHSIMSQYKLKASAISVTVLNVIEGPVFRPGSKTYVVTGNMGSNDKVGDFVATDLDTGRPSTTVRYVMGNNPADLLAVDSRTGKLTLKNKVTKEQYNMLGGKYQGTILSIDDNLQRTCTGTININIQSFGNDDRTNTEPNTKITTNTGRQESTSSTNYDTSTTSTDSSQVYSSEPGNGAKDLLSDNVHFGPAGIGLLIMGFLVLGLVPFLMICCDCGGAPRSAAGFEPVPECSDGAIHSWAVEGPQPEPRDITTVIPQIPPDNANIIECIDNSGVYTNEYGGREMQDLGGGERMTGFELTEGVKTSGMPEICQEYSGTLRRNSMRECREGGLNMNFMESYFCQKAYAYADEDEGRPSNDCLLIYDIEGVGSPAGSVGCCSFIGEDLDDSFLDTLGPKFKKLADISLGKESYPDLDPSWPPQSTEPVCLPQETEPVVSGHPPISPHFGTTTVISESTYPSGPGVLHPKPILDPLGYGNVTVTESYTTSDTLKPSVHVHDNRPASNVVVTERVVGPISGADLHGMLEMPDLRDGSNVIVTERVIAPSSSLPTSLTIHHPRESSNVVVTERVIQPTSGMIGSLSMHPELANAHNVIVTERVVSGAGVTGISGTTGISGGIGSSGLVGTSMGAGSGALSGAGISGGGIGLSSLGGTASIGHMRSSSDHHFNQTIGSASPSTARSRITKYSTVQYSK | Deamidated [R416; R607]
9 | A0A0G2JMB2 (protein) ASPTSPKVFPLSLDSTPQDGNVVVACLVQGFFPQEPLSVTWSESGQNVTARNFPPSQDASGDLYTTSSQLTLPATQCPDGKSVTCHVKHYTNPSQDVTVPCPVPPPPPCCHPRLSLHRPALEDLLLGSEANLTCTLTGLRDASGATFTWTPSSGKSAVQGPPERDLCGCYSVSSVLPGCAQPWNHGETFTCTAAHPELKTPLTANITKSGNTFRPEVHLLPPPSEELALNELVTLTCLARGFSPKDVLVRWLQGSQELPREKYLTWASRQEPSQGTTTFAVTSILRVAAEDWKKGDTFSCMVGHEALPLAFTQKTIDRLAGKPTHVNVSVVMAEVDGTCY | Deamidated [R240; R250; R260]
10 | Q7Z3Y7 (protein) MSLQFSNGSRHVCLRSGAGSVRPLNGGAGFAGSSACGGSVAGSEFSCALGGGLGSVPGGSHAGGALGNAACIGFAGSEGGLLSGNEKVTMQNLNDRLASYLDNVRALEEANAELERKIKGWYEKYGPGSCRGLDHDYSRYHLTIEDLKNKIISSTTTNANVILQIDNARLAADDFRLKYENELTLHQNVEADINGLRRVLDELTLCRTDQELQYESLSEEMTYLKKNHEEEMKALQCAAGGNVNVEMNAAPGVDLAVLLNNMRAEYEALAEQNRKDAEAWFNEKSASLQQQISHDSGAATFARSQLTEMRRTLQTLEIQLQSLMATKHSLECSLTETESNYCTQLAQIQAQIGALEEQLHQVRTETEGQKLEYEHLLDVKVHLEKEIETYCRLIDGDGNSCSKSKGFGSGSPGNSSKDLSKTTLVKTVVEELDQRGKVLSSRIHSIEEKTSKMTNGKTEQRVPF | Deamidated [R96]

Reference: article PMC9958131 (Nature Communications, 2023)
